Test results from patent publication US9271946B2, “Use of a RAR antagonist or inverse agonist for the treatment of chemotherapy and/or radiation therapy side effects” (IO Therapeutics, Inc., priority 2006, dated 2016).

Key:
[1] = test system: 5-FU-induced neutropenic male BDF1 mice; test: monotherapy and combination therapy on neutrophil recovery in 5-FU-induced neutropenic mice (Example 5); assay type: in vivo, mouse; settings: monotherapy; 5-FU 150 mg/kg i.v. Day 0; VTP 194310 3 mg/kg/day oral Days 2 to 4; PEG-G-CSF 10 μg/kg s.c. Day 5, 6, or 7
Experimental: VTP194310 DMSO Stock solution was made by weighing out VTP194310 and dissolving it in DMSO (25 mg/1.33 ml DMSO).
The Vehicle solution was made by mixing 39.2 ml Corn Oil+0.8 ml DMSO.
The 3.0 mg/kg VTP194310 solution was made by mixing 39.2 ml Corn Oil+0.8 ml VTP 194310 DMSO Stock solution.
The 150 mg/kg 5-FU solution was made by weighing out 187.5 mg 5-FU and mixing it with 10 g saline.
The 10 μg/kg PEG-G-CSF solution was made by diluting 6 mg/ml stock with PBS.
Male BDF1 mice (C57Bl×DBA2), 9 weeks old, DOB: 26 Jun. 2006) were used in this experiment.
Each group of mice were treated with 150 mg/kg 5-FU intravenously on Day 0, vehicle or VTP194310 orally by gavage at 3 mg/kg/day on Days 2 to 4, and/or subcutaneously with PEG-G-CSF at 10 μg/kg on Days 5, 6, or 7 according to the regimens listed in the table. The mean numbers of total white blood cells (WBC), neutrophils, lymphocytes, red blood cells (RBC) and platelets and standard error (SE) of data obtained for each treated group are shown in FIG. 6.

[2] = test system: CPM-induced leukopenic male BDF1 mice; test: cyclophosphamide-induced mouse model of leukopenia, blood cell recovery (Example 1); assay type: in vivo; settings: 10 μg/kg s.c. at day 2
Description: Mice purchased from Charles River Laboratories (Wilmington, Mass.) were housed individually in micro-isolater cages in a 12-hour light/dark cycle. They were housed under pathogen-free conditions, and received a normal standard diet and water ad libitum. They were acclimated for one week at the Association for Assessment and Accreditation of Laboratory Animal Care (AAALAC) accredited animal facility (Allergan Inc., Irvine, Calif.) prior to experiments. Study designs were approved by the Institutional Animal Care and Use Committee. Body weights were monitored throughout each study. Weight of the mice was in the range of 22-27 g at the day of treatment initiation. The mice were healthy, not previously used in other experimental procedures.
Leukopenia was induced in male BDF1 mice (C57Bl×DBA2, 7.5-12 weeks) by an intra-peritoneal (i.p.) injection of 200 mg/kg Cyclophosphamide (CPM, Sigma-Aldrich, Saint Louis, Mo.) in 0.2 ml saline. The effect of VTP 194310 on leukocyte recovery was evaluated by oral gavage of animals with 1 mg/kg of VTP 194310 as indicated in the results section. VTP 194310 (dissolved in DMSO) was diluted through peanut oil as the vehicle (dosed at 5 ml/kg). Control mice were given DMSO and vehicle alone. As a positive control, granulocytopoiesis was stimulated in CPM-treated mice by a single sub-cutaneous injection of 10 μg/kg pegylated recombinant methionyl human granulocyte colony-stimulating factor (PEG-r-metHuG-CSF) (Neulasta, Pegfilgrastim; Amgen, Thousand Oaks, Calif.) on day 2. Three separate experiments were performed.
Peripheral blood (60 μl) was collected under anaesthesia from the retroorbital sinus of the mice with heparinized capillary tubes and transferred to EDTA-coated microtainer tubes (Becton Dickinson, Franklin Lakes, N.J.). White cell, neutrophil, and lymphocyte counts were obtained for at least three mice per group by diluting the blood 1:4 with PBS containing 5% bovine serum albumin (Fraction V; Sigma, Saint Louis, Mo.), and by using an Advia 120 Hematology System (Bayer HealthCare Diagnostics Division, Tarrytown, N.Y.).

[3] = test system: CPM-induced neutropenic male BDF1 mice; test: mono-therapy and combination therapy on neutrophil recovery in CPM-induced neutropenic mice (Example 4); assay type: in vivo, mouse; settings: monotherapy; CPM 150 mg/kg Day 0; VTP 194310 1 or 3 mg/kg/day oral Days −1 to 1; PEG-G-CSF 1 or 10 μg/kg s.c. Day 2
Experimental: VTP 194310 DMSO stock solution was made by weighing out VTP 194310 and dissolved in DMSO (25 mg/1.33 ml DMSO). This stock solution was then mixed with Vehicle (39.2 ml Corn Oil+0.8 ml DMSO).
The 3.0 mg/kg VTP194310 solution was made by mixing 39.2 ml Corn Oil+0.8 ml VTP 194310 DMSO Stock.
The 1.0 mg/kg VTP194310 solution was made by diluting the VTP194310 DMSO Stock 1:3 with DMSO (e.g. 1 ml DMSO+0.5 ml 4310 Stock), and then combining 39.2 ml Corn Oil+0.8 ml of the diluted VTP194310 Stock.
The 1 and 10 μg/kg PEG-G-CSF solutions were made by diluting 6 mg/ml stock with PBS.
Male BDF1 mice (C57Bl×DBA2), 7-8 weeks old, DOB: 1 Jun. 2006) were used in this experiment.
35 μl of blood (via the submandibular vein) were collected according to the scheduled time points or until the full recovery of blood cells and platelets. The blood samples were analyzed after 1:5 dilution with PBS saline containing 2% BSA (Fraction V) and 0.2 mM EDTA on the Hematology Analyzer Cell-DYN 3700 (Abbott Diagnostics).
Each group of mice were treated with vehicle, VTP 194310 at 3 mg/kg, PEG-G-CSF at 1 or 10 μg/kg, and CPM at 150 mg/kg. The mean numbers of total white blood cells (WBC), neutrophils, lymphocytes, red blood cells (RBC) and platelets and standard error (SE) for data obtained for each treated group are shown in FIG. 4. […] Combination treatment with VTP 194310 and PEG-G-CSF further increased recovery.

B1: PEG-G-CSF: pegylated recombinant methionyl human granulocyte colony-stimulating factor (Neulasta, Pegfilgrastim; Amgen) (protein, chains of the INN, looked up)
chain: TPLGPASSLPQSFLLKCLEQVRKIQGDGAALQEKLCATYKLCHPEELVLLGHSLGIPWAPLSSCPSQALQLAGCLSQLHSGLFLYQGLLQALEGISPELGPTLDTLQLDVADFATTIWQQMEELGMAPALQPTQGAMPAFASAFQRRAGGVLVASHLQSFLEVSYRVLRHLAQP
modifications: N-terminal Met; PEG
B1 was tested, and the “recovery of neutrophils relative to control” value [1] was “little effect”, the “blood neutrophil level at day 8” value [2] was “declined by day 8 to numbers that were observed in the control group” and the “day of peak blood neutrophil level” value [2] was 7 days. The “number of blood neutrophils” value [2] was “sharp rise” and the “neutrophil recovery relative to control” value [3] was “enhanced neutrophil recovery”.
